Laboratory results as given in paper PMC4227867, “Analysis of Nidogen-1/Laminin γ1 Interaction by Cross-Linking, Mass Spectrometry, and Computational Modeling Reveals Multiple Binding Modes” (PLoS ONE, 2014).
Blank lines part the entries; values can stand above or below the molecule they belong to.

Columns and labels:
full-length nidogen-1 [1] = biological target: T1, full-length nidogen-1 (murine, UniProt P10493 29-1245); experiment: SPR; nidogen-1 immobilised by amine coupling on a CM5 chip; laminin variants as mobile analytes; single-cycle kinetics, 25°C, 20 mM HEPES, 100 mM NaCl, 0.05% Tween 20, pH 7.5; 1:1 binding model; apparent Kd
T1 construct: For photo-cross-linking the protein was made in Leu- and Met-depleted medium with photo-Met and photo-Leu; 13-25% of all leucines and methionines were partially replaced; also called entactin; source: HEK 293 EBNA cells, purified (Nickel-NTA Superflow); not shown: (His)6, N-terminal, kept
T1 sequence (looked up): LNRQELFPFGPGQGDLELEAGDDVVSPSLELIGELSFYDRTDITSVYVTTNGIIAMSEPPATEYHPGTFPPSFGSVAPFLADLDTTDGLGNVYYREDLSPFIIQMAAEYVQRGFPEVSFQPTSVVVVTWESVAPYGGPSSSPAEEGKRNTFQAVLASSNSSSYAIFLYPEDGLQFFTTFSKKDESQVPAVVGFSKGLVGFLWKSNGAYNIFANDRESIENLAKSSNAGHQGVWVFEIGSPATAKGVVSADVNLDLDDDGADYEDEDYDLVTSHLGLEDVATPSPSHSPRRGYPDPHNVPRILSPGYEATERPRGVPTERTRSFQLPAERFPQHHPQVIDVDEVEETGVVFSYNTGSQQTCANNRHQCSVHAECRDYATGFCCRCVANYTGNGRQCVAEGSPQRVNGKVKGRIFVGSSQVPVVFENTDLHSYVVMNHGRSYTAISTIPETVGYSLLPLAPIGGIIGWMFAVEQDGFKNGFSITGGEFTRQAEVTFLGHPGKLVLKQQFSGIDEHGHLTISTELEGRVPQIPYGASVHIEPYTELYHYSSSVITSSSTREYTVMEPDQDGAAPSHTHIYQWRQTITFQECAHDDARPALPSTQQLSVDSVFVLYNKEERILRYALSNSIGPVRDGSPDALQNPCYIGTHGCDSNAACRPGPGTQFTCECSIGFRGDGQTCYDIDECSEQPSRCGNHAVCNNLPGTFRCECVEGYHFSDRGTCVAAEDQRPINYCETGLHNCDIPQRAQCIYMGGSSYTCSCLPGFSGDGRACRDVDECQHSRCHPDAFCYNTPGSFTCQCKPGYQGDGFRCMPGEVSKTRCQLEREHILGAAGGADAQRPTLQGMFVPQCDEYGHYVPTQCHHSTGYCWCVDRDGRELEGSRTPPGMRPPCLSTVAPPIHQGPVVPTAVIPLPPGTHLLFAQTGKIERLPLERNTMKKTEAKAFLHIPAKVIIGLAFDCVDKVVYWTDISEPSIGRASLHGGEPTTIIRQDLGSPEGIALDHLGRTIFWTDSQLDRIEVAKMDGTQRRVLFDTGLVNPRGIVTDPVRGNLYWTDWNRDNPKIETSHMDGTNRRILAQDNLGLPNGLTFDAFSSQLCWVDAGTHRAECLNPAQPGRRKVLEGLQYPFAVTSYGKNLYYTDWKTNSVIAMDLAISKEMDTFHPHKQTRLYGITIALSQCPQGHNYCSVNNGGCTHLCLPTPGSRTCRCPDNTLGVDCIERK

[2] = biological target: laminin γ1 short arm (murine); experiment: ELISA; laminin fragments coated at 10 µg/ml in TBS overnight at 4°C; nidogen-1 0.03 nM to 234 nM in TBS-T/1% BSA, 1 h at room temperature; detected by anti-(His)6 antibody; apparent Kd
[3] = biological target: laminin γ1 LEb2–4 N836D (murine); experiment: as above
full-length nidogen-1 [4] = biological target: T1, full-length nidogen-1; experiment: as above; settings: both partners purified

B1: full-length nidogen-1 (natural protein)
chain: T1 sequence (looked up)
Kd [2]: 1.1 nM | Kd [3]: 34 nM

B3: laminin γ1 LEb2–4 (domain or fragment, murine)
chain: QPCPCPGGSSCAIVPKTKEVVCTHCPTGTAGKRCELCDDGYFGDPLGSNGPVRLCRPCQCNDNIDPNAVGNCNRLTGECLKCIYNTAGFYCDRCKEGFFGNPLAPNPADKCKACACNPYGTVQQQSSCNPVTGQCQCLPHVSGRDCGTCDPGYYNLQSGQGCER
notes: For photo-cross-linking made with photo-Met and photo-Leu partially incorporated; the limits of LEb2–4 may be marked there; also called laminin γ1 LEb2–4 wild type; LEb2–4 fragment; source: HEK 293 EBNA cells, purified (Strep-Tactin sepharose)
Kd (full-length nidogen-1 [4]): 1.4 nM

Results, then the molecule that gave them:

Kd (full-length nidogen-1 [1]): 12 nM
Molecule: laminin γ1 short arm (domain or fragment)

Kd (full-length nidogen-1 [4]): 45 nM
B2: laminin γ1 short arm N836D (domain or fragment)
chain: AMDECADEGGRPQRCMPEFVNAAFNVTVVATNTCGTPPEEYCVQTGVTGVTKSCHLCDAGQQHLQHGAAFLTDYNNQADTTWWQSQTMLAGVQYPNSINLTLHLGKAFDITYVRLKFHTSRPESFAIYKRTREDGPWIPYQYYSGSCENTYSKANRGFIRTGGDEQQALCTDEFSDISPLTGGNVAFSTLEGRPSAYNFDNSPVLQEWVTATDIRVTLNRLNTFGDEVFNEPKVLKSYYYAISDFAVGGRCKCNGHASECVKNEFDKLMCNCKHNTYGVDCEKCLPFFNDRPWRRATAESASESLPCDCNGRSQECYFDPELYRSTGHGGHCTNCRDNTDGAKCERCRENFFRLGNTEACSPCHCSPVGSLSTQCDSYGRCSCKPGVMGDKCDRCQPGFHSLTEAGCRPCSCDLRGSTDECNVETGRCVCKDNVEGFNCERCKPGFFNLESSNPKGCTPCFCFGHSSVCTNAVGYSVYDISSTFQIDEDGWRVEQRDGSEASLEWSSDRQDIAVISDSYFPRYFIAPVKFLGNQVLSYGQNLSFSFRVDRRDTRLSAEDLVLEGAGLRVSVPLIAQGNSYPSETTVKYIFRLHEATDYPWRPALSPFEFQKLLNNLTSIKIRGTYSERTAGYLDDVTLQSARPGPGVPATWVESCTCPVGYGGQFCETCLPGYRRETPSLGPYSPCVLCTCNGHSETCDPETGVCDCRDNTAGPHCEKCSDGYYGDSTLGTSSDCQPCPCPGGSSCAIVPKTKEVVCTHCPTGTAGKRCELCDDGYFGDPLGSNGPVRLCRPCQCNDNIDPDAVGNCNRLTGECLKCIYNTAGFYCDRCKEGFFGNPLAPNPADKCKACACNPYGTVQQQSSCNPVTGQCQCLPHVSGRDCGTCDPGYYNLQSGQGCERCDCHALGSTNGQCDIRTGQCECQPGITGQHCERCETNHFGFGPEGCKPCDCHHEGSL
modifications: Secreted from HEK293 EBNA cells, so disulfide-bonded LE modules and likely N-glycans. Double Strep tag II omitted. Paper numbering (Asn-836) is one higher than UniProt; classical Asn-802 + 33-residue
